# Values quoted from earlier work, collected in paper PMC12818765.
# Columns and labels:
# Lys33 = Lys33 (UniProt position 51, WVCAAKFESNF)
# Cterm129 = Cterm129 (UniProt position 147, IRGCRL-----)
# Asp18 = Asp18 (UniProt position 36, KRHGLDNYRGY)
# Glu35 = Glu35 (UniProt position 53, CAAKFESNFNT)
# Lys13 = Lys13 (UniProt position 31, LAAAMKRHGLD)
# Lys116 = Lys116 (UniProt position 134, WRNRCKGTDVQ)
# Lys97 = Lys97 (UniProt position 115, VNCAKKIVSDG)
# Asp119 = Asp119 (UniProt position 137, RCKGTDVQAWI)
# Asp52 = Asp52 (UniProt position 70, TDGSTDYGILQ)
# Tyr23 = Tyr23 (UniProt position 41, DNYRGYSLGNW)
# Glu7 = Glu7 (UniProt position 25, VFGRCELAAAM)
# Asp66 = Asp66 (UniProt position 84, RWWCNDGRTPG)
# Lys96 = Lys96 (UniProt position 114, SVNCAKKIVSD)
# His15 = His15 (UniProt position 33, AAMKRHGLDNY)
# Asp101 = Asp101 (UniProt position 119, KKIVSDGNGMN)
# Asp48 = Asp48 (UniProt position 66, TNRNTDGSTDY)
# Tyr53 = Tyr53 (UniProt position 71, DGSTDYGILQI)
# Lys1 = Lys1 (UniProt position 19, LAALGKVFGRC)
# Nterm1 = Nterm1 (UniProt position 19, LAALGKVFGRC)
# Tyr20 = Tyr20 (UniProt position 38, HGLDNYRGYSL)
# Asp87 = Asp87 (UniProt position 105, ALLSSDITASV)
# Glu10 = Glu10 (UniProt position 92, KKLHKEPATLI); conditions: not stated
# Asp40 = Asp40 (UniProt position 122, RLLLVDTPETK); conditions: not stated
# Asp95 = Asp95 (UniProt position 177, AYIYADGKMVN); conditions: not stated
# Glu75 = Glu75 (UniProt position 157, KKIEVEFDKGQ); conditions: not stated
# Glu43 = Glu43 (UniProt position 125, LVDTPETKHPK); conditions: not stated
# Glu67 = Glu67 (UniProt position 149, TKKMVENAKKI); conditions: not stated
# Glu57 = Glu57 (UniProt position 139, EKYGPEASAFT); conditions: not stated
# Glu101 = Glu101 (UniProt position 183, GKMVNEALVRQ); conditions: not stated
# Glu129 = Glu129 (UniProt position 211, HLRKSEAQAKK); conditions: not stated
# Glu52 = Glu52 (UniProt position 134, PKKGVEKYGPE); conditions: not stated
# Glu73 = Glu73 (UniProt position 155, NAKKIEVEFDK); conditions: not stated
# Glu122 = Glu122 (UniProt position 204, PNNTHEQHLRK); conditions: not stated
# Glu135 = Glu135 (UniProt position 217, AQAKKEKLNIW); conditions: not stated
# His124 = His124 (UniProt position 206, NTHEQHLRKSE); conditions: not stated
# His8 = His8 (UniProt position 90, STKKLHKEPAT); conditions: not stated
# His121 = His121 (UniProt position 203, KPNNTHEQHLR); conditions: not stated
# His46 = His46 (UniProt position 128, TPETKHPKKGV); conditions: not stated
substance,measurement,setting,value
"Hen egg-white lysozyme (HEWL, lysozyme C) (Gallus gallus)",pKa,Lys33,10.60
same,pKa,Cterm129,2.75
same,pKa,Asp18,2.66
same,pKa,Glu35,6.20
same,pKa,Lys13,10.60
same,pKa,Lys116,10.40
same,pKa,Lys97,10.30
same,pKa,Asp119,3.20
same,pKa,Asp52,3.68
same,pKa,Tyr23,9.80
same,pKa,Glu7,2.85
same,pKa,Asp66,0.90
same,pKa,Lys96,10.80
same,pKa,His15,5.36
same,pKa,Asp101,4.09
same,pKa,Asp48,1.60
same,pKa,Tyr53,12.10
same,pKa,Lys1,10.90
same,pKa,Nterm1,7.90
same,pKa,Tyr20,10.30
same,pKa,Asp87,2.07
"Staphylococcal nuclease (SNase), form used for the Asp/Glu pKa values (Staphylococcus aureus)",pKa,Glu10,2.82
same,pKa,Asp40,3.87
same,pKa,Asp95,2.16
same,pKa,Glu75,3.26
same,pKa,Glu43,4.32
same,pKa,Glu67,3.76
same,pKa,Glu57,3.49
same,pKa,Glu101,3.81
same,pKa,Glu129,3.75
same,pKa,Glu52,3.93
same,pKa,Glu73,3.31
same,pKa,Glu122,3.89
same,pKa,Glu135,3.76
"Staphylococcal nuclease (SNase), form used for the histidine pKa values (Staphylococcus aureus)",pKa,His124,5.73
same,pKa,His8,6.52
same,pKa,His121,5.30
same,pKa,His46,5.86
